Measured values from patent US9580512.

Target: CD55 (UniProt P08174)
Assay: cell-based or functional assay

Chain of UniProt P08174 (P08174 35-353 limits assumed): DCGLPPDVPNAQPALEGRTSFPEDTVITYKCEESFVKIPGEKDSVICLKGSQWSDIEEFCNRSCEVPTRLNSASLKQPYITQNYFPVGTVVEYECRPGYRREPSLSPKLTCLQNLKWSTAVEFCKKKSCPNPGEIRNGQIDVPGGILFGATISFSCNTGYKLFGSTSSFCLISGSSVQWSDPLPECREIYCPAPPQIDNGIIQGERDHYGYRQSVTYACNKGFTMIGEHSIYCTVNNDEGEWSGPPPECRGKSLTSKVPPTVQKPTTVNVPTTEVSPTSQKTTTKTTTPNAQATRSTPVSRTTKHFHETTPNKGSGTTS

C3b deposition on 791T cells, mean linear fluorescence (MLF) | increase in C3b deposition [%] | Substance
350 |  | BRIC 216 (antibody)
200 |  | BRIC 220 (antibody)
520 | 250 | monoclonal antibody 791T/36
